# Results reported in patent publication US20250277008A1, “Novel Anti-Bacterial Peptides Derived From Differentiating Stem Cells” (AGENCY FOR SCIENCE, TECHNOLOGY AND RESEARCH, priority 2022, published 2025).
# “Also recorded” adds a separate entry of the source. Where two headings read alike, the source gives them in different places. Ends that are not written are not given here.
# Key:
# [1] = system: 3-day old P. aeruginosa (PA) biofilm; experiment: Estimation of biofilm disruption (crystal violet staining); type: cell-based, Pseudomonas aeruginosa (ATCC 14213)
# Description: Biofilms were grown in cation adjusted MH2 broth for 72 hours in 96-well clear bottom polystyrene plates. The biofilm inoculum was prepared by subculturing overnight bacterial culture for 90 minutes until OD600 reaches ˜0.3-0.4. 200 μL of biofilm inoculum was aliquoted into each well of the 96-well plate. After 72 hours of static incubation at 37° C., the spent media was expelled, and the biofilms were treated with ASC-CM for 24 hours. […] Briefly, all the contents in the 96-well plates were removed and the wells were washed thrice with 1×PBS (Phosphate Buffer Solution) to remove the non-adherent planktonic bacteria. The attached biofilms were fixed with 95% methanol for 5 minutes. The wells were air-dried and stained with 0.1% crystal violet solution for 15 minutes at room temperature. The crystal violet solution was removed, and the wells were washed with water three times. The plates were again air-dried, and the stained biofilm was solubilized using 30% acetic acid. The absorbance of the biofilms were recorded at OD595 using Micro xMark™ Microplate Absorbance Spectrophotometer.
# human keratinocytes = experiment: 2-dimensional scratch assay; type: cell-based; settings: compared to media control
# Description: Cell confluency of human keratinocytes were assessed in presence of peptides in a 2D scratch assay at each timepoint by applying an ImageJ plugin PHANTAST on phase contrast time lapse images. The rate of change of keratinocytes confluency was calculated by obtaining a best fit line across the confluency vs time plot as described in. The rate of change of confluence was used as a surrogate measure for speed of migrating keratinocytes.
# P. aeruginosa (PA) [2] = type: cell-based, Pseudomonas aeruginosa (ATCC 14213); settings: for minimum bactericidal concentration (MBC): PA; for minimum bactericidal concentration (MBC) / concentration required to significantly kill: MBC = lowest concentration killing ≥50% colonies vs media control
# Description: (§1) Examination of the potency of conditioned media obtained from adipose-derived mesenchymal stem cells (ASC-CM) and recombinant peptides against S. typhimurium, P. aeruginosa and S. aureus strains were performed by using the broth microdilution protocol from the Clinical and Laboratory Standards Institute (CLSI) guidelines (CLSI 2012). Briefly, five freshly plated bacteria colonies were grown in cation adjusted MH2 broth in a shaker incubator at 37° C., 220 RPM. Cells were grown to an optical density (OD600) of 0.20 using a Microplate Spectrophotometer. 100 μL of microbial culture containing ˜5×10^5 CFU/mL of bacteria in the respective broths were introduced into each well containing 100 μL of ASC-CM or peptides and incubated overnight at 37° C. Next, to check the bactericidal effects, 100 μL from each well was transferred and spread on sterile MH2 agar plates. The plates were incubated overnight at 37° C. and the number of colonies forming units (CFU) was observed the next day. Readings of bacteria grown in media without any treatments were normalized to 100% as media control. Minimum bactericidal concentration (MBC) was defined as the lowest peptide concentration (μM) required to kill ≥50% bacterial colonies compared to the media control.
# S. typhimurium (ST) [3] = experiment: Anti-bacterial resistance evolution assay (serial passaging); type: cell-based; settings: Salmonella enterica, 384 h, read-out: Minimum Inhibitory Concentration (MIC) after serial passaging
# Description: To determine the antibacterial effects of the ASC-CM or anti-bacterial peptides, intracellular ATP levels of the bacteria was determined by the ATP Determination Kit. As indicated in the antibacterial assay protocol, after overnight incubation of the ASC-CM or peptides with bacteria for a period of 24 hours, the culture was first spun to eliminate the extracellular ATP and other metabolic waste released from the dead bacteria. The bacterial pellet was resuspended in equivalent amount of water and the levels of intracellular ATP was calculated based on manufacturer's instructions.
# The resistance development of S. typhimurium (ST) strain was assessed by sequential passaging in the presence of sub-inhibitory concentrations of gentamicin or ASC-CM. Briefly, sequential passaging of S. typhimurium (ST) cells was done with full-strength, ½-strength, and ¼-strengths of ASC-CM or sub-inhibitory concentrations of gentamicin for a period of 4 weeks. The cells grown in sub-inhibitory strengths of either conditioned media (CM) or gentamicin were diluted to A600 nm (OD600) of 0.1 and serially passaged daily with the same concentrations for 4 weeks at 37° C. with agitation at 24 h intervals.
# P. aeruginosa 14213 = experiment: Murine excisional wound infection model; type: in vivo, mice; settings: wounds infected 24 hours, then ENO3 (0.2 nM) or SPARCL1 (0.067 nM) for 24 hours; vs untreated controls
# Description: The murine wound infection model was carried as described with minor modifications. […] Statistical analysis was performed by Student's t-test compared to untreated (PBS). All approved procedures were performed in accordance with the 218 Institutional Animal Care and Use Committee (IACUC) in Nanyang Technological 219 University, School of Biological Sciences (ARFSBS/NIEA0198Z) for murine wound infection model.
# The biofilm disruption ability of ENO3 and SPARCL1 in a murine excisional wound infection model. Excisional wounds were infected with ˜10^3 CFU of P. aeruginosa 14213 and treated for 24 hours to form the biofilms. […] Post-treatment, the wound region was excised, and the bacterial count were enumerated.
# [4] = system: 3-day old S. typhimurium (ST) biofilm; experiment: Estimation of biofilm disruption (crystal violet staining); type: cell-based, Salmonella typhimurium
# Description: Biofilms were grown in cation adjusted MH2 broth for 72 hours in 96-well clear bottom polystyrene plates. The biofilm inoculum was prepared by subculturing overnight bacterial culture for 90 minutes until OD600 reaches ˜0.3-0.4. 200 μL of biofilm inoculum was aliquoted into each well of the 96-well plate. After 72 hours of static incubation at 37° C., the spent media was expelled, and the biofilms were treated with ASC-CM for 24 hours. Post-treatment, the minimum biofilm inhibition concentration (MBIC) showing >50% reduction was determined by quantifying the levels of remaining attached biofilm, by crystal violet staining method. Briefly, all the contents in the 96-well plates were removed and the wells were washed thrice with 1×PBS (Phosphate Buffer Solution) to remove the non-adherent planktonic bacteria. The attached biofilms were fixed with 95% methanol for 5 minutes. The wells were air-dried and stained with 0.1% crystal violet solution for 15 minutes at room temperature. The crystal violet solution was removed, and the wells were washed with water three times. The plates were again air-dried, and the stained biofilm was solubilized using 30% acetic acid. The absorbance of the biofilms were recorded at OD595 using Micro xMark™ Microplate Absorbance Spectrophotometer.
# S. aureus (SA) = type: cell-based; settings: for minimum bactericidal concentration (MBC) / concentration required to significantly kill: MBC = lowest concentration killing ≥50% colonies vs media control
# Description: as §1
# S. typhimurium (ST) [5] = experiment: Antibacterial assay (CLSI broth microdilution, CFU counts); type: cell-based; settings: for minimum bactericidal concentration (MBC) / concentration required to significantly kill: MBC = lowest concentration killing ≥50% colonies vs media control
# Description: as §1
# P. aeruginosa (PA) [6] = type: cell-based, Pseudomonas aeruginosa (ATCC 14213); settings: FIG. 6H
molecule,measurement,setting,value
KVNQIGSVTESIQACKLAQSN [Peptide E1A],biofilm disruption activity,[1]; E1A 0.39 μM-1.56 μM,more than 50%
same,migration of human keratinocytes (rate of change of confluency),human keratinocytes,increased migration of human keratinocytes; also recorded: higher migration speed
same,anti-bacterial activity (bacterial viability),P. aeruginosa (PA) [2]; E1A 0.39 μM,more than 50%
same,minimum bactericidal concentration (MBC),P. aeruginosa (PA) [2],390 nM
"CN[C@@H]1[C@@H](O)C(O[C@@H]2[C@@H](O)[C@H](O[C@H]3O[C@H]([C@@H](C)NC)CC[C@H]3N)[C@@H](N)C[C@H]2N)OC[C@]1(C)O (stereo partly drawn) [Gentamicin, (3R,4R,5R)-2-{[(1S,2S,3R,4S,6R)-4,6-diamino-3-{[(2R,3R,6S)-3-amino-6-[(1R)-1-(methylamino)ethyl]oxan-2-yl]oxy}-2-hydroxycyclohexyl]oxy}-5-methyl-4-(methylamino)oxane-3,5-diol, reference compound]",MIC,S. typhimurium (ST) [3],1020 µg/mL
same,migration of human keratinocytes (rate of change of confluency),human keratinocytes,significantly impaired; also recorded: no cell migration is observed
"KQRNKVKKIYLDEKR [Peptide S1B, KQRNKVKKIYLDEKR]",biofilm disruption activity,[1]; S1B 6.25 μM-12.5 μM,more than 50%
same,minimum bactericidal concentration (MBC),P. aeruginosa (PA) [2],50000 nM
same,anti-bacterial activity (bacterial viability),P. aeruginosa (PA) [2]; S1B 50 μM,more than 50%
"HHKAEKSSVLKSKEESH [Peptide S1A, HHKAEKSSVLKSKEESH]",biofilm disruption activity,[1]; S1A 0.78 μM-3.125 μM,more than 50%
same,minimum bactericidal concentration (MBC),P. aeruginosa (PA) [2],100000 nM
same,anti-bacterial activity (bacterial viability),P. aeruginosa (PA) [2]; S1A 100 μM,more than 50%
"SPARCL1: recombinant full-length human SPARCL1 peptide, SEQ ID NO: 2, identified in bacteria-primed ASC conditioned media (protein, listed as Homo sapiens) MKTGLFFLCLLGTAAAIPTNARLLSDHSKPTAETVAPDNTAIPSLRAEAEENEKETAVSTEDDSHHKAEKSSVLKSKEESHEQSAEQGKSSSQELGLKDQEDSDGHLSVNLEYAPTEGTLDIKEDMSEPQEKKLSENTDFLAPGVSSFTDSNQQESITKREENQEQPRNYSHHQLNRSSKHSQGLRDQGNQEQDPNISNGEEEEEKEPGEVGTHNDNQERKTELPREHANSKQEEDNTQSDDILEESDQPTQVSKMQEDEFDQGNQEQEDNSNAEMEEENASNVNKHIQETEWQSQEGKTGLEAISNHKETEEKTVSEALLMEPTDDGNTTPRNHGVDDDGDDDGDDGGTDGPRHSASDDYFIPSQAFLEAERAQSIAYHLKIEEQREKVHENENIGTTEPGEHQEAKKAENSSNEEETSSEGNMRVHAVDSCMSFQCKRGHICKADQQGKPHCVCQDPVTCPPTKPLDQVCGTDNQTYASSCHLFATKCRLEGTKKGHQLQLDYFGACKSIPTCTDFEVIQFPLRMRDWLKNILMQLYEANSEHAGYLNEKQRNKVKKIYLDEKRLLAGDHPIDLLLRDFKKNYHMYVYPVHWQFSELDQHPMDRVLTHSELAPLRASLVPMEHCITRFFEECDPNKDKHITLKEWGHCFGIKEEDIDENLLF",biofilm disruption,[1]; SPARCL1 about 0.00134 nM,~50%
same,bacterial colonies (CFU counts) in excised wound,P. aeruginosa 14213,reduction of bacterial colonies; also recorded: Reduction in bacterial colonies
same,migration of human keratinocytes (rate of change of confluency),human keratinocytes,increased migration of human keratinocytes; also recorded: higher keratinocytes migration rate
same,biofilm disruption,[4]; SPARCL1 about 0.00134 nM,~50%
same,minimum bactericidal concentration (MBC) / concentration required to significantly kill,P. aeruginosa (PA) [2],268 nM
same,bacterial reduction (CFU %),P. aeruginosa (PA) [2]; SPARCL1 268 nM,more than 50%
same,minimum bactericidal concentration (MBC) / concentration required to significantly kill,S. aureus (SA),1000 nM
same,bacterial reduction (CFU %),"S. aureus (SA); SPARCL1 1000 nM, FIG. 6F",more than 50%
same,minimum bactericidal concentration (MBC) / concentration required to significantly kill,S. typhimurium (ST) [5],0.0067 nM
same,bacterial reduction (CFU %),S. typhimurium (ST) [5]; SPARCL1 0.0067 nM,more than 50%
"ENO3: recombinant full-length human ENO3 peptide, SEQ ID NO: 1, identified in bacteria-primed ASC conditioned media (protein, listed as Homo sapiens) MAMQKIFAREILDSRGNPTVEVDLHTAKGRFRAAVPSGASTGIYEALELRDGDKGRYLGKGVLKAVENINNTLGPALLQKKLSVVDQEKVDKFMIELDGTENKSKFGANAILGVSLAVCKAGAAEKGVPLYRHIADLAGNPDLILPVPAFNVINGGSHAGNKLAMQEFMILPVGASSFKEAMRIGAEVYHHLKGVIKAKYGKDATNVGDEGGFAPNILENNEALELLKTAIQAAGYPDKVVIGMDVAASEFYRNGKYDLDFKSPDDPARHITGEKLGELYKSFIKNYPVVSIEDPFDQDDWATWTSFLSGVNIQIVGDDLTVTNPKRIAQAVEKKACNCLLLKVNQIGSVTESIQACKLAQSNGWGVMVSHRSGETEDTFIADLVVGLCTGQIKTGAPCRSERLAKYNQLMRIEEALGDKAIFAGRKFRNPKAK",biofilm disruption,[1]; ENO3 about 0.0102 nM,~50%
same,bacterial colonies (CFU counts) in excised wound,P. aeruginosa 14213,reduction of bacterial colonies; also recorded: Reduction in bacterial colonies
same,migration of human keratinocytes (rate of change of confluency),human keratinocytes,increased migration of human keratinocytes; also recorded: higher keratinocytes migration rate
same,biofilm disruption,[4]; ENO3 about 0.0102 nM,more than 50%
same,bacterial reduction (CFU %),P. aeruginosa (PA) [2]; ENO3 0.204 nM,more than 50%
same,minimum bactericidal concentration (MBC) / concentration required to significantly kill,P. aeruginosa (PA) [2],0.204 nM
same,bacterial reduction (CFU %),"S. aureus (SA); ENO3 0.102 nM, FIG. 6C",more than 50%
same,minimum bactericidal concentration (MBC) / concentration required to significantly kill,S. aureus (SA),0.102 nM
same,MBC,"S. aureus (SA); S. aureus, >99% reduction of viable colonies, FIG. 6G",2000 nM
same,MIC,"S. aureus (SA); S. aureus, spot plate, FIG. 6G",2000 nM
same,bacterial reduction (CFU %),S. typhimurium (ST) [5]; ENO3 2.04 nM,more than 50%
same,minimum bactericidal concentration (MBC) / concentration required to significantly kill,S. typhimurium (ST) [5],2.04 nM
same,MBC,P. aeruginosa (PA) [6]; >99% reduction of viable colonies,6000 nM
same,MIC,P. aeruginosa (PA) [6]; spot plate,4000 nM
